Laboratory results as given in US20210388087A1 (Chugai, published 2021).
Residue numbers refer to the chain shown, from its start. Names may count otherwise.

T1: Human CD3eg linker (human)
T1 construct: Single chain: epsilon and gamma subunits of human CD3 joined by a 29-mer linker, Flag-tag at the C-terminus; also called recombinant human CD3
T1 chain: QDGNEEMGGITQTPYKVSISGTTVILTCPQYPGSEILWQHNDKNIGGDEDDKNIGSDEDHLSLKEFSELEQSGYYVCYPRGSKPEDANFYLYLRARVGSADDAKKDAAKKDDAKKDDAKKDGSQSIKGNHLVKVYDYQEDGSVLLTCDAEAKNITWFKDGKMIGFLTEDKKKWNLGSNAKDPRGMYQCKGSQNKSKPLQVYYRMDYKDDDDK

B1: H183/L072 VH G65A (antibody, name in Kabat numbering, V domains shown)
VH: QVQLVESGGGLVQPGRSLRLSCAASGFTFSNAWMHWVRQAPGKGLEWVAQIKDKGNAYAAYYAPSVKARFTISRDDSKNSIYLQMNSLKTEDTAVYYCHYVHYASASTVLPAFGVDAWGQGTTVTVSS
VL: DIVMTQSPLSLPVTPGEPASISCQASQELVHMNRNTYLHWYQQKPGQAPRLLIYKVSNRFPGVPDRFSGSGSGTDFTLKISRVEAEDVGVYYCAQGTSVPFTFGQGTKLEIK
B2: H183/L072 VH G65I (antibody, name in Kabat numbering, V domains shown)
VH: B1 VH with A68I
VL: B1 VL
B3: H183/L072 VH G65L (antibody, name in Kabat numbering, V domains shown)
VH: B1 VH with A68L
VL: B1 VL
B4: H183/L072 VH G65M (antibody, name in Kabat numbering, V domains shown)
VH: B1 VH with A68M
VL: B1 VL
B5: H183/L072 VH G65P (antibody, name in Kabat numbering, V domains shown)
VH: B1 VH with A68P
VL: B1 VL
B6: H183/L072 VH G100hA (antibody, name in Kabat numbering, V domains shown)
VH: B1 VH with A68G, G114A
VL: B1 VL
B7: H183/L072 VH G100hI (antibody, name in Kabat numbering, V domains shown)
VH: B1 VH with A68G, G114I
VL: B1 VL
B8: H183/L072 VH G100hL (antibody, name in Kabat numbering, V domains shown)
VH: B1 VH with A68G, G114L
VL: B1 VL
B9: H183/L072 VH G100hM (antibody, name in Kabat numbering, V domains shown)
VH: B1 VH with A68G, G114M
VL: B1 VL
B10: H183/L072 VH G100hP (antibody, name in Kabat numbering, V domains shown)
VH: B1 VH with A68G, G114P
VL: B1 VL
B11: H183/L072 VH H35A (antibody, name in Kabat numbering, V domains shown)
VH: B1 VH with H35A, A68G
VL: B1 VL
B12: H183/L072 VH H35D (antibody, name in Kabat numbering, V domains shown)
VH: B1 VH with H35D, A68G
VL: B1 VL
B13: H183/L072 VH H35E (antibody, name in Kabat numbering, V domains shown)
VH: B1 VH with H35E, A68G
VL: B1 VL
B14: H183/L072 VH H35F (antibody, name in Kabat numbering, V domains shown)
VH: B1 VH with H35F, A68G
VL: B1 VL
B15: H183/L072 VH H35G (antibody, name in Kabat numbering, V domains shown)
VH: B1 VH with H35G, A68G
VL: B1 VL
B16: H183/L072 VH H35I (antibody, name in Kabat numbering, V domains shown)
VH: B1 VH with H35I, A68G
VL: B1 VL
B17: H183/L072 VH H35K (antibody, name in Kabat numbering, V domains shown)
VH: B1 VH with H35K, A68G
VL: B1 VL
B18: H183/L072 VH H35L (antibody, name in Kabat numbering, V domains shown)
VH: B1 VH with H35L, A68G
VL: B1 VL
B19: H183/L072 VH H35M (antibody, name in Kabat numbering, V domains shown)
VH: B1 VH with H35M, A68G
VL: B1 VL
B20: H183/L072 VH H35N (antibody, name in Kabat numbering, V domains shown)
VH: B1 VH with H35N, A68G
VL: B1 VL
B21: H183/L072 VH H35P (antibody, name in Kabat numbering, V domains shown)
VH: B1 VH with H35P, A68G
VL: B1 VL
B22: H183/L072 VH H35Q (antibody, name in Kabat numbering, V domains shown)
VH: B1 VH with H35Q, A68G
VL: B1 VL
B23: H183/L072 VH H35R (antibody, name in Kabat numbering, V domains shown)
VH: B1 VH with H35R, A68G
VL: B1 VL
B24: H183/L072 VH H35S (antibody, name in Kabat numbering, V domains shown)
VH: B1 VH with H35S, A68G
VL: B1 VL
B25: H183/L072 VH H35T (antibody, name in Kabat numbering, V domains shown)
VH: B1 VH with H35T, A68G
VL: B1 VL
B26: H183/L072 VH H35V (antibody, name in Kabat numbering, V domains shown)
VH: B1 VH with H35V, A68G
VL: B1 VL
B27: H183/L072 VH H35W (antibody, name in Kabat numbering, V domains shown)
VH: B1 VH with H35W, A68G
VL: B1 VL
B28: H183/L072 VH H35Y (antibody, name in Kabat numbering, V domains shown)
VH: B1 VH with H35Y, A68G
VL: B1 VL
B29: H183/L072 VH H93A (antibody, name in Kabat numbering, V domains shown)
VH: B1 VH with A68G, H99A
VL: B1 VL
B30: H183/L072 VH H93I (antibody, name in Kabat numbering, V domains shown)
VH: B1 VH with A68G, H99I
VL: B1 VL
B31: H183/L072 VH H93L (antibody, name in Kabat numbering, V domains shown)
VH: B1 VH with A68G, H99L
VL: B1 VL
B32: H183/L072 VH H93M (antibody, name in Kabat numbering, V domains shown)
VH: B1 VH with A68G, H99M
VL: B1 VL
B33: H183/L072 VH H93P (antibody, name in Kabat numbering, V domains shown)
VH: B1 VH with A68G, H99P
VL: B1 VL
B34: H183/L072 VH H96A (antibody, name in Kabat numbering, V domains shown)
VH: B1 VH with A68G, H102A
VL: B1 VL
B35: H183/L072 VH H96I (antibody, name in Kabat numbering, V domains shown)
VH: B1 VH with A68G, H102I
VL: B1 VL
B36: H183/L072 VH H96L (antibody, name in Kabat numbering, V domains shown)
VH: B1 VH with A68G, H102L
VL: B1 VL
B37: H183/L072 VH H96M (antibody, name in Kabat numbering, V domains shown)
VH: B1 VH with A68G, H102M
VL: B1 VL
B38: H183/L072 VH H96P (antibody, name in Kabat numbering, V domains shown)
VH: B1 VH with A68G, H102P
VL: B1 VL
B39: H183/L072 VH I51A (antibody, name in Kabat numbering, V domains shown)
VH: B1 VH with I51A, A68G
VL: B1 VL
B40: H183/L072 VH I51D (antibody, name in Kabat numbering, V domains shown)
VH: B1 VH with I51D, A68G
VL: B1 VL
B41: H183/L072 VH I51E (antibody, name in Kabat numbering, V domains shown)
VH: B1 VH with I51E, A68G
VL: B1 VL
B42: H183/L072 VH I51F (antibody, name in Kabat numbering, V domains shown)
VH: B1 VH with I51F, A68G
VL: B1 VL
B43: H183/L072 VH I51G (antibody, name in Kabat numbering, V domains shown)
VH: B1 VH with I51G, A68G
VL: B1 VL
B44: H183/L072 VH I51H (antibody, name in Kabat numbering, V domains shown)
VH: B1 VH with I51H, A68G
VL: B1 VL
B45: H183/L072 VH I51K (antibody, name in Kabat numbering, V domains shown)
VH: B1 VH with I51K, A68G
VL: B1 VL

Target: T1, Human CD3eg linker
Experiment: Biacore SPR, vs template H183/L072

Binder | fold change of affinity [fold]
B1 | 1.1
B2 | 1
B3 | 0.9
B4 | 0.9
B5 | 0.9
B6 | 4.8
B7 | 2.6
B8 | 0.8
B9 | 4.2
B10 | 0.6
B11 | 0
B12 | 0
B13 | 0
B14 | 0
B15 | 0
B16 | 0
B17 | 0
B18 | 0
B19 | 0
B20 | 0
B21 | 0
B22 | 0
B23 | 0

Binder | fold change of affinity [fold]
B24 | 0.5
B25 | 0
B26 | 0
B27 | 0
B28 | 0
B29 | 0
B30 | 0
B31 | 0
B32 | 0
B33 | 0
B34 | 0.3
B35 | 0
B36 | 0
B37 | 0.1
B38 | 0
B39 | 0
B40 | 0
B41 | 0
B42 | 0
B43 | 0
B44 | 0
B45 | 1
